These results are taken from publication PMC7895813 (Journal of Molecular Biology, 2021).

Where a chain is given by its changes, count along the chain named. Names may count otherwise.

Series [1] deals with the molecule itself. The experiment in a line: SEC; cleaved MDM2 variants after removal of the GST-tag on HiLoad 16/600 Superdex 75; oligomeric state by comparison with molecular weight markers. (In general: SEC sorts molecules by how far they enter the pores of the column.)
Series [2] concerns the molecule itself. As to the kind of experiment: SEC; GST-MDM2 variants (3 mg/mL) incubated with 1:10 TEV for 16-20 h at 4 °C; soluble fraction of the cleaved products on Superdex 75 Increase 10/300; comparison with molecular weight markers and SDS-PAGE.
The target in series [3] is T1, UbcH5B–Ub, isopeptide-linked E2–Ub conjugate (UbcH5B S22R C85K) (human | , UniProt P62837 1-147; P0CG48 1-76, S22R | C85K, lysine 85 (C85K) isopeptide-linked to the C-terminus of Ub | C-terminus isopeptide-linked to lysine 85 of UbcH5B).
T1 construct: ubiquitin (Ub), the cut product of the ubiquitin precursor; Ub was cloned with an N-terminal 6xHis-tag, a TEV cleavage site and a GGS linker; also called E2(UbcH5B)–Ub; source: E. coli BL21(DE3) GOLD, purified; conjugate generated as described previously
The experiment in a line: SPR; GST-tagged MDM2 variants captured on a CM-5 chip with coupled anti-GST antibody; serial dilution of UbcH5B–Ub as analyte; Biacore T200, 25 °C; 25 mM Tris-HCl pH 7.6, 150 mM NaCl, 1 mM DTT, 0.005% Tween-20; two technical replicates. To be noted: both partners purified.

B1: Danio rerio MDM2 407-C (MDM2^z), GST-tag removed (domain or fragment, Danio rerio (zebrafish), UniProt O42354 377-445, looked up)
chain: FNSLEACLPATCLEPCVICQSRPKNGCIVHGRTGHLMACYTCAKKLKNRNKLCPVCREPIQSVVLTYMS
notes: MDM2, Danio rerio (zebrafish), residues 407 to the C-terminus; 407-417 correspond to 423-433 of human MDM2, which implies a numbered chain of about 475 residues; also called zebrafish MDM2 407-C; source: E. coli BL21(DE3) GOLD, GST-tag released with TEV, Superdex 75 gel filtration; not shown: GST, N-terminal, cleaved
A word on the stoichiometry N: it is a count of units in the complex or per binding partner. Take B1: the “stoichiometry N” value in series [1] is 2.

B2: MDM2^h A434S (human MDM2 419-C A434S), GST-tag removed (domain or fragment, UniProt Q00987 419-491, looked up)
chain: TQDKEESVESSLPLNSIEPCVICQGRPKNGCIVHGKTGHLMACFTCAKKLKKRNKPCPVCRQPIQMIVLTYFP
notes: MDM2, human, residues 419 to the C-terminus, with A434S; source: E. coli BL21(DE3) GOLD, GST-MDM2 treated with TEV, soluble cleaved products on analytical SEC; not shown: GST, N-terminal, cleaved
As for B2, the binding result in series [2] was “binds”.

B3: GST-tagged human MDM2 419-C (MDM2^h) (domain or fragment, UniProt Q00987 419-491, looked up)
chain: B2 chain with S16A
notes: MDM2, human, residues 419 to the C-terminus (RING domain with the preceding region); pGEX-4T1, N-terminal GST-tag followed by a TEV cleavage site; GST kept for SPR and ubiquitination assays; also called GST-MDM2^h; wild-type MDM2^h; source: E. coli BL21(DE3) GOLD, purified (glutathione Sepharose, gel filtration); not shown: GST, N-terminal, kept
By Kd is commonly meant the equilibrium constant for the complex coming apart. Read a low Kd as a tighter complex. Turning to B3, binding in series [3] was characterised by a dissociation constant (Kd) of 13.5 ± 0.6 µM.

B4: MDM2^h I435V (human MDM2 419-C I435V), GST-tag removed (domain or fragment, UniProt Q00987 419-491, looked up)
chain: B2 chain with S16A, I17V
notes: MDM2, human, residues 419 to the C-terminus, with I435V; source: E. coli BL21(DE3) GOLD, GST-MDM2 treated with TEV, soluble cleaved products on analytical SEC; not shown: GST, N-terminal, cleaved
Take B4: the binding result in series [2] was “binds”.

B5: human MDM2 419-C G443T (MDM2^hGT), GST-tag removed (domain or fragment, UniProt Q00987 419-491, looked up)
chain: B2 chain with S16A, G25T
notes: MDM2, human, residues 419 to the C-terminus, with G443T; also called MDM2^h G443T; MDM2-G443T; source: E. coli BL21(DE3) GOLD, GST-tag released with TEV, Superdex 75 gel filtration; not shown: GST, N-terminal, cleaved
As to B5, the “stoichiometry N” value in series [2] was 2.

B6: MDM2^h P491S (human MDM2 419-C P491S), GST-tag removed (domain or fragment, UniProt Q00987 419-491, looked up)
chain: B2 chain with S16A, P73S
notes: MDM2, human, residues 419 to the C-terminus, with P491S; source: E. coli BL21(DE3) GOLD, GST-MDM2 treated with TEV, soluble cleaved products on analytical SEC; not shown: GST, N-terminal, cleaved
On to B6, for which the binding result in series [2] is “binds”.

B7: GST-tagged human MDM2 419-C G443T (MDM2^hGT) (domain or fragment, UniProt Q00987 419-491, looked up)
chain: B2 chain with S16A, G25T
notes: MDM2, human, residues 419 to the C-terminus, with G443T; pGEX-4T1, N-terminal GST-tag followed by a TEV cleavage site; GST kept for SPR and ubiquitination assays; also called GST-MDM2^hGT; MDM2^h G443T; source: E. coli BL21(DE3) GOLD, purified (glutathione Sepharose, gel filtration); not shown: GST, N-terminal, kept
In series [3], B7 displayed a Kd of 16.3 ± 1.9 µM.
